The supplement of paper PMC9112550, “Optimization of the antimicrobial peptide Bac7 by deep mutational scanning” (BMC Biology, 2022)

Tested on: Escherichia coli TOP10
Assay: shrunken log2 fold change of peptide-encoding DNA abundance (4.5 h post-induction vs induction); higher = less antimicrobial activity (less host growth inhibition)
Conditions: time post-induction: 4.5 h; library: site-saturation at positions 5, 18, 19, 20
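Further: peptides expressed intracellularly from a pBAD plasmid library in pooled LB shake-flask culture, induced with 0.3% L-arabinose, DNA abundance read by NGS, three biological replicates, DESeq2 with apeglm shrinkage.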

| Sequence | shrunken log2 fold change |
| --- | --- |
| RRIRIRPPRLPRPRPRPDHTPRP | -0.25 |
| RRIRFRPPRLPRPRPRPQTDPRP | -0.21 |
| RRIRARPPRLPRPRPRPAHAPRP | 1.07 |
| RRIRCRPPRLPRPRPRPPDIPRP | 0.409 |
| RRIRKRPPRLPRPRPRPWVPPRP | 0.481 |
| RRIRIRPPRLPRPRPRPFEAPRP | -0.151 |
| RRIRQRPPRLPRPRPRPHQIPRP | 0.0211 |
| RRIRRRPPRLPRPRPRPSQKPRP | -0.00949 |
| RRIRTRPPRLPRPRPRPADGPRP | -0.0563 |
| RRIRTRPPRLPRPRPRPRKHPRP | -0.166 |
| RRIRNRPPRLPRPRPRPHKIPRP | -0.657 |
| RRIRFRPPRLPRPRPRPIALPRP | -0.222 |
| RRIRERPPRLPRPRPRPEPTPRP | 0.327 |
| RRIRCRPPRLPRPRPRPMWAPRP | 0.378 |
| RRIRSRPPRLPRPRPRPLPIPRP | 0.0503 |
| RRIRARPPRLPRPRPRPEGKPRP | 0.702 |
| RRIRGRPPRLPRPRPRPPYIPRP | -0.271 |
| RRIRNRPPRLPRPRPRPYSIPRP | -0.534 |
| RRIRNRPPRLPRPRPRPQIMPRP | -0.127 |
| RRIRFRPPRLPRPRPRPVRDPRP | 1.66 |
| RRIRTRPPRLPRPRPRPDFEPRP | 0.0498 |
| RRIRCRPPRLPRPRPRPKFIPRP | -0.653 |
| RRIRYRPPRLPRPRPRPTEAPRP | 0.0329 |
| RRIRIRPPRLPRPRPRPPAFPRP | -0.155 |
| RRIRQRPPRLPRPRPRPQCGPRP | -0.133 |

| Sequence | shrunken log2 fold change |
| --- | --- |
| RRIRFRPPRLPRPRPRPDMSPRP | -0.0802 |
| RRIRVRPPRLPRPRPRPSMYPRP | 0.531 |
| RRIRARPPRLPRPRPRPHLPPRP | 0.0943 |
| RRIRCRPPRLPRPRPRPQNPPRP | -0.144 |
| RRIRKRPPRLPRPRPRPDFMPRP | 0.028 |
| RRIRSRPPRLPRPRPRPPPLPRP | 0.739 |
| RRIRKRPPRLPRPRPRPSYEPRP | -0.304 |
| RRIRQRPPRLPRPRPRPKGAPRP | 0.0159 |
| RRIRTRPPRLPRPRPRPDKVPRP | -0.0275 |
| RRIRARPPRLPRPRPRPARQPRP | 0.766 |
| RRIRCRPPRLPRPRPRPIDEPRP | -0.0366 |
| RRIRIRPPRLPRPRPRPPHCPRP | -0.391 |
| RRIRNRPPRLPRPRPRPFEKPRP | -0.0819 |
| RRIRVRPPRLPRPRPRPDTYPRP | -0.995 |
| RRIRPRPPRLPRPRPRPNGVPRP | -0.0233 |
| RRIRCRPPRLPRPRPRPGCTPRP | -0.279 |
| RRIRLRPPRLPRPRPRPMHMPRP | -0.226 |
| RRIRVRPPRLPRPRPRPHDYPRP | -0.264 |
| RRIRARPPRLPRPRPRPATMPRP | 0.413 |
| RRIRQRPPRLPRPRPRPDNAPRP | -0.246 |
| RRIRVRPPRLPRPRPRPQFSPRP | -0.0362 |
| RRIRYRPPRLPRPRPRPLAVPRP | -0.0867 |
| RRIRCRPPRLPRPRPRPLRQPRP | 0.713 |
| RRIRFRPPRLPRPRPRPAKMPRP | 0.207 |
| RRIRQRPPRLPRPRPRPSMMPRP | -0.565 |

| Sequence | shrunken log2 fold change |
| --- | --- |
| RRIRCRPPRLPRPRPRPEPWPRP | 0.634 |
| RRIRHRPPRLPRPRPRPHISPRP | -0.226 |
| RRIRPRPPRLPRPRPRPAVKPRP | 0.171 |
| RRIRMRPPRLPRPRPRPMNSPRP | 0.0624 |
| RRIRDRPPRLPRPRPRPIVLPRP | -0.176 |
| RRIRPRPPRLPRPRPRPEMIPRP | -0.0258 |
| RRIRRRPPRLPRPRPRPDCFPRP | 0.681 |
| RRIRKRPPRLPRPRPRPYQYPRP | -0.0576 |
| RRIRKRPPRLPRPRPRPTKTPRP | 0.14 |
| RRIRPRPPRLPRPRPRPGFYPRP | -0.421 |
| RRIRHRPPRLPRPRPRPSQWPRP | -0.451 |
| RRIRYRPPRLPRPRPRPEFDPRP | -0.0306 |
| RRIRSRPPRLPRPRPRPAFWPRP | 0.651 |
| RRIRARPPRLPRPRPRPPECPRP | 0.327 |
| RRIRTRPPRLPRPRPRPHLNPRP | -0.358 |
| RRIRFRPPRLPRPRPRPVIFPRP | 0.774 |
| RRIRQRPPRLPRPRPRPARTPRP | 0.167 |
| RRIRSRPPRLPRPRPRPSQLPRP | -0.302 |
| RRIRGRPPRLPRPRPRPIPVPRP | 0.0104 |
| RRIRNRPPRLPRPRPRPWFNPRP | -0.448 |
| RRIRPRPPRLPRPRPRPFDIPRP | -0.395 |
| RRIRFRPPRLPRPRPRPPTKPRP | 0.709 |
| RRIRRRPPRLPRPRPRPASNPRP | 0.472 |
| RRIRWRPPRLPRPRPRPFHWPRP | 0.175 |
| RRIRIRPPRLPRPRPRPKLYPRP | -0.33 |

| Sequence | shrunken log2 fold change |
| --- | --- |
| RRIRFRPPRLPRPRPRPDHLPRP | -0.00942 |
| RRIRTRPPRLPRPRPRPLCQPRP | -0.0705 |
| RRIRSRPPRLPRPRPRPQGPPRP | -0.0522 |
| RRIRDRPPRLPRPRPRPQGEPRP | -0.0304 |
| RRIRMRPPRLPRPRPRPKKMPRP | 0.249 |
| RRIRLRPPRLPRPRPRPGGSPRP | 0.259 |
| RRIRKRPPRLPRPRPRPDPYPRP | -0.0561 |
| RRIRSRPPRLPRPRPRPKWKPRP | -0.0184 |
| RRIRQRPPRLPRPRPRPVAWPRP | 0.128 |
| RRIRTRPPRLPRPRPRPFFHPRP | -0.158 |
| RRIRIRPPRLPRPRPRPNGWPRP | 0.101 |
| RRIRFRPPRLPRPRPRPCHMPRP | -0.285 |
| RRIRKRPPRLPRPRPRPADMPRP | 0.399 |
| RRIRQRPPRLPRPRPRPNMEPRP | -0.404 |
| RRIRDRPPRLPRPRPRPICIPRP | 0.0464 |
| RRIRTRPPRLPRPRPRPMQHPRP | -0.112 |
| RRIRFRPPRLPRPRPRPWQNPRP | -0.00226 |
| RRIRPRPPRLPRPRPRPHKCPRP | -0.19 |
| RRIRNRPPRLPRPRPRPMMKPRP | 2.77 |
| RRIRERPPRLPRPRPRPWVGPRP | 0.0249 |
| RRIRSRPPRLPRPRPRPAPDPRP | 0.369 |
| RRIRCRPPRLPRPRPRPSYFPRP | -0.193 |
| RRIRRRPPRLPRPRPRPNGCPRP | 0.00793 |
| RRIRERPPRLPRPRPRPATWPRP | -0.014 |
| RRIRLRPPRLPRPRPRPPQYPRP | -0.0075 |

| Sequence | shrunken log2 fold change |
| --- | --- |
| RRIRCRPPRLPRPRPRPFIVPRP | -0.575 |
| RRIRVRPPRLPRPRPRPMYAPRP | -0.17 |
| RRIRSRPPRLPRPRPRPLNRPRP | -0.246 |
| RRIRSRPPRLPRPRPRPICCPRP | -0.0929 |
| RRIRARPPRLPRPRPRPCFKPRP | 0.0174 |
| RRIRTRPPRLPRPRPRPYWLPRP | -0.486 |
| RRIRMRPPRLPRPRPRPSRFPRP | 0.253 |
| RRIRPRPPRLPRPRPRPWCWPRP | 0.233 |
| RRIRSRPPRLPRPRPRPFEPPRP | -0.268 |
| RRIRLRPPRLPRPRPRPPFFPRP | 0.14 |
| RRIRARPPRLPRPRPRPLTVPRP | 0.242 |
| RRIRARPPRLPRPRPRPQPEPRP | 1.04 |
| RRIRERPPRLPRPRPRPQRGPRP | -0.0773 |
| RRIRIRPPRLPRPRPRPHQLPRP | -0.52 |
| RRIRLRPPRLPRPRPRPNVQPRP | -0.275 |
| RRIRFRPPRLPRPRPRPVHHPRP | -0.00203 |
| RRIRNRPPRLPRPRPRPKRVPRP | 0.148 |
| RRIRCRPPRLPRPRPRPEGFPRP | 0.0977 |
| RRIRMRPPRLPRPRPRPRIQPRP | 0.203 |
| RRIRLRPPRLPRPRPRPKQWPRP | 0.176 |
| RRIRWRPPRLPRPRPRPIVGPRP | -0.0113 |
| RRIRQRPPRLPRPRPRPDPRPRP | -0.00604 |
| RRIRLRPPRLPRPRPRPLFRPRP | -0.388 |
| RRIRIRPPRLPRPRPRPEWWPRP | -0.0654 |
| RRIRFRPPRLPRPRPRPNCQPRP | -0.508 |

| Sequence | shrunken log2 fold change |
| --- | --- |
| RRIRWRPPRLPRPRPRPCDEPRP | -0.0781 |
| RRIRARPPRLPRPRPRPLKMPRP | 0.283 |
| RRIRSRPPRLPRPRPRPDVAPRP | 0.407 |
| RRIRTRPPRLPRPRPRPCEVPRP | 0.0427 |
| RRIRGRPPRLPRPRPRPRYVPRP | -0.0805 |
| RRIRWRPPRLPRPRPRPCWHPRP | -0.259 |
| RRIRPRPPRLPRPRPRPQIIPRP | -0.447 |
| RRIRCRPPRLPRPRPRPTQFPRP | 0.167 |
| RRIRWRPPRLPRPRPRPSTEPRP | 0.0764 |
| RRIRARPPRLPRPRPRPCCMPRP | -0.0671 |
| RRIRQRPPRLPRPRPRPSLCPRP | -0.0894 |
| RRIRERPPRLPRPRPRPGHWPRP | 0.0159 |
| RRIRRRPPRLPRPRPRPCNQPRP | -0.0711 |
| RRIRQRPPRLPRPRPRPMHRPRP | -0.0558 |
| RRIRMRPPRLPRPRPRPYKYPRP | -0.851 |
| RRIRWRPPRLPRPRPRPINSPRP | -0.498 |
| RRIRDRPPRLPRPRPRPWKQPRP | -0.0551 |
| RRIRTRPPRLPRPRPRPEHHPRP | -0.203 |
| RRIRGRPPRLPRPRPRPDNWPRP | 0.347 |
| RRIRGRPPRLPRPRPRPCSSPRP | -0.129 |
| RRIRQRPPRLPRPRPRPFFYPRP | -0.257 |
| RRIRRRPPRLPRPRPRPSMVPRP | -0.298 |
| RRIRNRPPRLPRPRPRPCRKPRP | -0.0373 |
| RRIRNRPPRLPRPRPRPYCCPRP | -0.564 |
| RRIRCRPPRLPRPRPRPVWWPRP | 0.261 |
